From patent US20200270360A1 (ANGIEX, published 2020) come the findings set out here.

Where a chain is given by its changes, count along the chain named.

The EC50 is the concentration giving half of the maximal effect.

T1: human TM4SF1 (transmembrane-4 L six family member-1) (human, UniProt P30408 1-202)
T1 construct: also called hTM4SF1
T1 sequence: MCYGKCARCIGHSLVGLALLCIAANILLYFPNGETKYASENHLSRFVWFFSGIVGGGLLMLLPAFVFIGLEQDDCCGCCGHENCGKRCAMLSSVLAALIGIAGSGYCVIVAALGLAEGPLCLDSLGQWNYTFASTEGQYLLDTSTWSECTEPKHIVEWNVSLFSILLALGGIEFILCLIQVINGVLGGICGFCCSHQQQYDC

B1: humanized AGX-A01 (antibody, human IgG1, kappa, V domains shown)
VH: EVQLVESGGGLVKPGGSLRLSCAASGFTFSSFAMSWVRQAPGKGLEWVSTISSGSIYIYYTDGVKGRFTISRDNAKNSLYLQMNSLRAEDTAVYYCARRGIYYGYDGYAMDYWGQGTLVTVSS
VL: AIVLTQSPGTLSLSPGERATLSCRSSQSLVHSNGNTYLHWYMQKPGQAPRVLIYKVSNRFSGIPDRFSGSGSGTDFTLTISRLEPDDFAIYYCSQSTHIPLAFGQGTKLEIKR
notes: also called h AGX-A01 H1L10; h AGX-A01
B2: humanized mutated (hm) AGX-A07 H2L5 V1 (antibody, human IgG1, kappa, V domains shown)
VH: EVQLVQSGAEVKKPGASVKVSCKASGYTFTNYGVKWVRQAPGQGLEWMGWINTYTGNPIYAADFKGRVTMTTDTSTSTAYMELRSLRSDDTAVYYCVRFQYGDYRYFDVWGQGTLVTVSS
VL: EIVLTQSPATLSLSPGERATLSCRANSGISFINWYQQKPGQAPRLLIYGTANLASGIPARFSGSGSGRDFTLTISSLEPEDFAVYYCQQWSSNPLTFGGGTKVEIKR
notes: Full heavy and light chains
B3: humanized mutated (hm) AGX-A07 H2L5 V3 (antibody, human IgG1, kappa, V domains shown)
VH: B2 VH
VL: B2 VL with W90Y
notes: Full heavy and light chains
B4: humanized mutated (hm) AGX-A07 H2L5 V2 (antibody, human IgG1, kappa, V domains shown)
VH: B2 VH
VL: B2 VL with N26Q
notes: Full heavy and light chains; also called AGX-A07 H2v1L5v2
B5: humanized mutated (hm) AGX-A07 H2L5 V4 (antibody, human IgG1, kappa, V domains shown)
VH: B2 VH
VL: B2 VL with N26Q, W90Y
notes: Full heavy and light chains; also called hm AGX-A07 V4
B6: humanized AGX-A07 H2L5 (antibody, human IgG1, kappa, V domains shown)
VH: B2 VH with E1Q, G44D, Y80F
VL: B2 VL with V3I, S62G
notes: Full heavy and light chains; also called h AGX-A07 H2L5; hAGX-A07 H2L5
B7: anti-TM4SF1 antibody AGX-A01 (antibody, V domains shown)
VH: EVILVESGGGLVKPGGSLKLSCAASGFTFSSFAMSWVRQTPEKRLEWVATISSGSIYIYYTDGVKGRFTISRDNAKNTVHLQMSSLRSEDTAMYYCARRGIYYGYDGYAMDYWGQGTSVTVS
VL: AVVMTQTPLSLPVSLGDQASISCRSSQSLVHSNGNTYLHWYMQKPGQSPKVLIYKVSNRFSGVPDRFSGSGSGTDFTLKISRVEADDLGIYFCSQSTHIPLAFGAGTKLELK
notes: also called 8G4; AGX-01

One series deals with T1, human TM4SF1 (transmembrane-4 L six …). Description: flow cytometry (MFI) on HUVEC. (Flow cytometry measures light scatter and fluorescence of single cells or particles in a stream.)
Molecule B1 had an EC50 of 3.03 nM.

Molecule B2 had a 50% effective concentration (EC50) of 1.58 nM.

B3 yielded an EC50 of 4.19 nM.

B4 returned an EC50 of 1.64 nM.

Molecule B5 gave an EC50 of 46.1 nM.

In turn, B6 gave an EC50 of 1.53 nM.

The target is the same in the next series. Description: flow cytometry on MDA-MB-468 and HLMEC cells.
Consider B7, for which the “concentration that saturates cell surface TM4SF1 binding” value came out at 10000 ng/mL.
